For this series, the system named is Nc1ncnc2c1ncn2[C@@H]1O[C@H](COP(=O)(O)OP(=O)(O)OP(=O)(O)O)[C@@H](O)[C@H]1O. Kind of series: purified protein. Type of series: biochemical, Homo sapiens.

As for IP6K1 (Homo sapiens), the Km is 353 ± 167 µM.

For orientation: Km means the substrate concentration at which the rate is half of its maximum.

For the origin of these results see paper PMC6540952.
